Assay results as given in patent US9624471B2, “Methods for maturing cardiomyocytes and uses thereof” (UNIVERSITY OF WASHINGTON THROUGH ITS CENTER FOR …, priority 2013, dated 2017).

B1: let-7i: human let-7 family miRNA, SEQ ID NO: 10, overexpressed from pLKO lentiviral pri-miR-let-7i construct (nucleic acid, listed as Homo sapiens)
chain: CUGGCUGAGGUAGUAGUUUGUGCUGUUGGUCGGGUUGUGACAUUGCCCGCUGUGGAGAUAACUGCGCAAGCUACUGCCUUGCUA
B2: let-7g: human let-7 family miRNA, SEQ ID NO: 9, overexpressed from pLKO lentiviral pri-miR-let-7g construct (nucleic acid, listed as Homo sapiens)
chain: AGGCUGAGGUAGUAGUUUGUACAGUUUGAGGGUCUAUGAUACCACCCGGUACAGGAGAUAACUGUACAGGCCACUGCCUUGCCA

Columns and labels:
[1] = test system: cardiomyocytes (let-7 OE CMs vs. EV control); experiment: SEAHORSE XF96 metabolic flux assay (MITOSTRESS, palmitate, glucose stress); format: cell-based, human; conditions: compared to EV control; for OCR changes after FCCP treatment (maximal respiration capacity): after oligomycin
Source text: To understand the molecular signaling components of maturation program that are modulated in let-7g OE CMs, the inventors probed the differential expression data further using density plots for each of the 12 pathways previously identified (FIG. 4F). […] The inverse relationship between FA metabolism and PI3/AKT/insulin signaling in let-7g OE CMs was similar to that observed in the 1 yr old CMs and consistent with the metabolic switch seen in maturing CMs in in vivo studies. The inventors validated by qPCR in the let-7 OE CMs the down-regulation of candidate let-7 targets in the insulin pathway and up-regulation of candidates of FA metabolism (FIG. 5B). To test the functional relevance for these gene expression changes, the inventors carried out metabolic analysis of let-7 OE CMs vs. EV control using the SEA HORSE™ metabolic flux assay. First, mitochondrial maximal respiration capacity was analyzed by measuring the oxygen consumption rate (OCR), a metabolic parameter representing the mitochondrial respiration levels. To record the maximum activity of the electron transport chain uncoupled from ATP synthesis, mitochondrial ATP synthase was inhibited with oligomycin, then maximum mitochondrial respiration was measured after addition of the proton gradient discharger, carbonyl cyanide 4-(trifluoromethoxy)phenylhydrazone (FCCP). […] Increased mitochondrial respiration can be due to increased mitochondrial copy number or increased mitochondrial activity, for example due to higher efficiency of glucose or fatty acid usage as energy substrates. […] To investigate whether the let-7 OE CMs also utilize glucose more efficiently, the extracellular acidification rate (ECAR) was determined. […] These experiments clearly indicate that let-7 OE specifically increases the efficiency of palmitate usage, which is an important sign of maturation.
The SEAHORSE™ XF96 extracellular flux analyzer was used to assess mitochondrial function. The plates were pre-treated with 0.1% Gelatin. At around 20 days after differentiation, the cardiomyocytes (both empty vector control and let-7 OE) were seeded onto the plates with a density of 30,000 cells per XF96 well (2,500/mm^2) to ensure about 90% surface coverage at the time of experiment. The SEAHORSE™ assays were carried out 3 days after the seeding onto the XF96 well plate. […] The OCR values were further normalized to the number of cells present in each well, quantified by the Hoechst staining (Hoechst 33342; SIGMA-ALDRICH™) as measured using fluorescence at 355 nm excitation and 460 nm emission. […] Cellular capacity to utilize Palmitate as an energy source was calculated as the OCR reduction after ETO addition. […]

RUES2-CMs = experiment: Immunocytochemistry (α-actinin staining) and morphological analysis of lentivirally transduced cardiomyocytes; format: cell-based, human; conditions: for cell perimeter / cell area: let-7 OE CMs at roughly day 30; for cell perimeter: EV control 108±15 μm, n=50 cells per condition; for cell perimeter / cell area / sarcomere length: P<0.001; for cell area: EV control 380±70 μm^2; for Circularity index (4πArea/(perimeter)^2) / sarcomere length: let-7 OE CMs; for Circularity index (4πArea/(perimeter)^2): EV control 0.41±0.02; for sarcomere length: EV control 1.65±0.02 μm
Procedure: Undifferentiated human embryonic stem cell (hESCs) lines H7 (NIHhESCC-10-0061) and RUES2 (NIHhESC-09-0013) were expanded using mouse embryonic fibroblast-conditioned medium with 5 ng/ml basic fibroblast growth factor. H7-CMs were derived using previously reported protocols^1-3. RUES2-CMs were used for all functional analyses and these were derived using a cardiac progenitor cell differentiation protocol^4 derived from previously reported monolayer directed differentiation methods^1, 5, 6. In brief, this involves the induction of a monolayer of hESCs with activin A and bone morphogenetic protein-4 (BMP4) under serum- and insulin-free conditions. During the early stages of differentiation, the cells were also exposed to the Wnt agonist CHIR 99021 followed by the Wnt antagonist Xav939. From 7 days of in vitro differentiation, the cells were fed every alternate day with serum-free RPMI-B27 plus insulin media. After 20 days of in vitro differentiation, the cells were trypsinized and replated. Only those cell preparations that had at least 70% cardiac troponin T-positive CMs (as observed by flow cytometry) were used for further experiments. For experiments where the H7-CMs were cultured for around a year, the cells were replated after the 3rd and 11th month from day 0. At the 11th month, FACS analysis for cTnT was conducted and the CMs were split into three parts and were cultured as three independent replicates for another 1.5 months after which they were harvested for RNA extraction. IMR90iPSC-CMs cultured for 1 yr were replated at day 20 and split every 2 months for 12 months before harvesting for RNA extraction. To generate engineered cardiac tissue, the inventors used the procedure reported by Tulloch et al.^2 In brief, day 20 CMs are suspended in the collagen gel at 10,000/μl, and rod-shaped constructs of 25 μl (1 mm radius×8 mm length) were generated by casting in a preformed mold and warming to 37° C. The ends of the mold contain Velcro-like micro-fiber loops, and these become impregnated with gel+cell mixture. These tabs allow the constructs to be maintained under static tension, which facilitates alignment and differentiation of the CMs. The constructs were maintained in the serum-free RPMI-B27 plus glutamine media up to 2 weeks. For let-7 overexpression analysis, the CMs were transduced with the virus carrying the pLKO-let-7 or empty vector control pLKO plasmid at day 12 of the directed differentiation protocol. After overnight transduction the virus was removed, cells were rinsed with PBS and new media added. The samples were analyzed at day 30 from the initiation of differentiation.
All morphological analyses were carried out using at least 50 cells. Cells replated in chamber slides were fixed in 4% paraformaldehyde for 15 minutes followed by PBS wash. The fixed cells were blocked for an hour with 1.5% normal goat serum and incubated O/N with mouse alpha actinin (sigma) primary antibody. The primary antibody was rinsed with PBS and incubated with secondary antibody (Alexa fluor 488 [Goat anti mouse]) for an hour followed by nuclear staining using DAPI. For cell area and perimeter measurements, images were acquired and processed using ZEISS™ AXIO fluorescent microscope and AXIOVISION™ software. For sarcomere length, images were acquired and processed using LEICA™ TCS-SPE confocal microscope and LEICA™ software. These confocal images were used to select 1-2 myofibrils per cell with at least ten continuous, well-recognized alpha-actinin bands and divided the length value by the number of sarcomeres. The images were further analyzed using IMAGE J™ software.
For lenti-let-7 OE constructs, Pri-miR-let-7i and pri-miR-let-7g sequence was amplified from H7 genomic DNA using forward primer for let-7i-TCCGCGTGGTCCCGT; reverse primer for let-7i-ATTGTCCTCCGCGGCGC and forward primer for let-7g-AGAGTTCCTCCAGCGCTCC; reverse primer for let-7g-CCCCACTTGGCAGCTGGC, resulting in 153 bp and 154 bp products, respectively. […]

Molecule | OCR changes after FCCP treatment (maximal respiration capacity) [1] | OCR increase in response to palmitate (fatty acid stress test) [1] | cell perimeter (RUES2-CMs) [μm] | cell area (RUES2-CMs) [μm^2] | Circularity index (4πArea/(perimeter)^2) (RUES2-CMs) | sarcomere length (RUES2-CMs) [μm]
B1 | significantly greater | greater | 300±7.4 | 1110±101 | 0.15±0.04 | 1.70±0.01
B2 | significantly greater | greater | 302±3 | 980±95 | 0.12±0.02 | 1.69±0.01
